From patent US20220010008A1
Values joined by “and” are separate entries in the source; they are usually repeats but may differ in a detail not shown here. Equal values may be shown once.

Experiments:
[1] = molecular target: recombinant human IL-5 protein (human) (UniProt P05113); assay: ELISA, biotin-human IL-5 on streptavidin plate, Ab 0.0043 nM
[2] = molecular target: recombinant human IL-5 protein (human) (UniProt P05113); assay: SPR, human IL-5 immobilized on CM5 chip, chimeric antibody as analyte, 1:1 global fit
[3] = molecular target: recombinant human IL-5 protein (human) (UniProt P05113); assay: cell-based or functional assay
[4] = molecular target: recombinant human IL-5 protein (human) (UniProt P05113); assay: FACS blocking: biotin-IL-5 bound to CHOK1 IL-5Ra/CSF2RB cells, Ab 0.0107 nM
[5] = molecular target: recombinant human IL-5 protein (human) (UniProt P05113); assay: ELISA, biotin-human IL-5 on streptavidin plate, Ab 0.0009 nM
[6] = molecular target: recombinant human IL-5 protein (human) (UniProt P05113); assay: FACS blocking: biotin-IL-5 bound to CHOK1 IL-5Ra/CSF2RB cells, Ab 0.0004 nM
[7] = molecular target: recombinant human IL-5 protein (human) (UniProt P05113); assay: ELISA, biotin-human IL-5 on streptavidin plate, Ab 0.5333 nM
[8] = molecular target: recombinant human IL-5 protein (human) (UniProt P05113); assay: FACS blocking: biotin-IL-5 bound to CHOK1 IL-5Ra/CSF2RB cells, Ab 0.2667 nM
[9] = molecular target: recombinant human IL-5 protein (human) (UniProt P05113); assay: ELISA, biotin-human IL-5 on streptavidin plate, Ab 0.0213 nM
[10] = molecular target: recombinant human IL-5 protein (human) (UniProt P05113); assay: ELISA, biotin-human IL-5 on streptavidin plate, Ab 0.0002 nM
[11] = molecular target: recombinant human IL-5 protein (human) (UniProt P05113); assay: FACS blocking: biotin-IL-5 bound to CHOK1 IL-5Ra/CSF2RB cells, Ab 6.6667 nM
[12] = molecular target: recombinant human IL-5 protein (human) (UniProt P05113); assay: FACS blocking: biotin-IL-5 bound to CHOK1 IL-5Ra/CSF2RB cells, Ab 33.3333 nM
[13] = molecular target: recombinant human IL-5 protein (human) (UniProt P05113); assay: ELISA, biotin-human IL-5 on streptavidin plate, Ab 0.1067 nM
[14] = molecular target: recombinant human IL-5 protein (human) (UniProt P05113); assay: ELISA, biotin-human IL-5 on streptavidin plate, Ab 13.3333 nM
[15] = molecular target: recombinant human IL-5 protein (human) (UniProt P05113); assay: FACS blocking: biotin-IL-5 bound to CHOK1 IL-5Ra/CSF2RB cells, Ab 0.0533 nM
[16] = molecular target: recombinant human IL-5 protein (human) (UniProt P05113); assay: FACS blocking: biotin-IL-5 bound to CHOK1 IL-5Ra/CSF2RB cells, Ab 1.3333 nM
[17] = molecular target: recombinant human IL-5 protein (human) (UniProt P05113); assay: FACS blocking: biotin-IL-5 bound to CHOK1 IL-5Ra/CSF2RB cells, Ab 0.0021 nM
[18] = molecular target: recombinant human IL-5 protein (human) (UniProt P05113); assay: ELISA, biotin-human IL-5 on streptavidin plate, Ab 2.6667 nM
[19] = molecular target: recombinant human IL-5 protein with His tag (human) (UniProt P05113); assay: ELISA, biotin-human IL-5 on streptavidin; antibody 13.3333 nM
[20] = molecular target: recombinant human IL-5 protein with His tag (human) (UniProt P05113); assay: ELISA, biotin-human IL-5 on streptavidin; antibody 0.0213 nM
[21] = molecular target: recombinant human IL-5 protein with His tag (human) (UniProt P05113); assay: ELISA, biotin-human IL-5 on streptavidin; antibody 0.1067 nM
[22] = molecular target: recombinant human IL-5 protein with His tag (human) (UniProt P05113); assay: ELISA, biotin-human IL-5 on streptavidin; antibody 0.0009 nM
[23] = molecular target: recombinant human IL-5 protein with His tag (human) (UniProt P05113); assay: ELISA, biotin-human IL-5 on streptavidin; antibody 2.6667 nM
[24] = molecular target: recombinant human IL-5 protein with His tag (human) (UniProt P05113); assay: ELISA, biotin-human IL-5 on streptavidin; antibody 0.5333 nM
[25] = molecular target: recombinant human IL-5 protein with His tag (human) (UniProt P05113); assay: ELISA, biotin-human IL-5 on streptavidin; antibody 0.0002 nM
[26] = molecular target: recombinant human IL-5 protein with His tag (human) (UniProt P05113); assay: ELISA, biotin-human IL-5 on streptavidin; antibody 0.0043 nM

B1: 154F10G8 mouse-human chimeric antibody (antibody, human IgG4, V domains shown)
VH: QVQLQQPGAELVKPGASVKLSCKASGYTFTSYWITWVKQRPGQGLEWIGDIYPGSGSTFYNEKFKSEATLTVDTSSSTAYMQLSSLTSEDSAVFYCSTETTLGYWGQGTTLTVSS
VL: DVLMTQTPLSLPVSLGDQASISCRSSQSIVHNNGNTYLEWYLQKPGQSPKLLIYKVSNRFSGVPDRFSGSGSGTDFTLKISRVEAEDLGVYYCFQGSHVPFTFGSGTKLEIK
In the case of B1, the OD450 nm [1] is reported as 0.108 OD450 nm and 0.106 OD450 nm, the Kd [2] is reported as 0.188 nM and the koff [2] is reported as 5.24e-05 s⁻¹. The kon [2] was 279000 M⁻¹ s⁻¹, the RLU, CTLL-2 proliferation with IL-5, Ab 0.000170667 nM [3] was 59900 RLU and 54900 RLU and the RLU, CTLL-2 proliferation with IL-5, Ab 0.000853333 nM [3] was 59800 RLU and 56700 RLU. For the same binder, the RLU, CTLL-2 proliferation with IL-5, Ab 0.004266667 nM [3] was 64400 RLU and 61300 RLU, the RLU, CTLL-2 proliferation with IL-5, Ab 0.02133333 nM [3] was 62100 RLU and 59300 RLU and the RLU, CTLL-2 proliferation with IL-5, Ab 0.1066667 nM [3] was 54800 RLU and 52000 RLU. For the same binder, the RLU, CTLL-2 proliferation with IL-5, Ab 0.5333334 nM [3] was 44900 RLU and 38200 RLU, the RLU, CTLL-2 proliferation with IL-5, Ab 2.666667 nM [3] was 28000 RLU and 25400 RLU and the RLU, CTLL-2 proliferation with IL-5, Ab 13.33333 nM [3] was 16200 RLU and 17000 RLU. The RLU, CTLL-2 proliferation with IL-5, Ab 66.66666 nM [3] was 12200 RLU and 12400 RLU, the RLU, CTLL-2 proliferation with IL-5, Ab 3.41333E-05 nM [3] was 60700 RLU and 50200 RLU and the RLU, TF-1 proliferation with IL-5, Ab 0.00001 nM [3] was 110000 RLU and 113000 RLU. For the same binder, the RLU, TF-1 proliferation with IL-5, Ab 0.00003 nM [3] was 111000 RLU and 109000 RLU, the RLU, TF-1 proliferation with IL-5, Ab 0.00017 nM [3] was 111000 RLU and the RLU, TF-1 proliferation with IL-5, Ab 0.00085 nM [3] was 109000 RLU and 108000 RLU. The RLU, TF-1 proliferation with IL-5, Ab 0.00427 nM [3] was 109000 RLU and 114000 RLU, the RLU, TF-1 proliferation with IL-5, Ab 0.02133 nM [3] was 99100 RLU and 101000 RLU and the RLU, TF-1 proliferation with IL-5, Ab 0.10667 nM [3] was 81400 RLU and 82800 RLU. For the same binder, the RLU, TF-1 proliferation with IL-5, Ab 0.53333 nM [3] was 60400 RLU and 56800 RLU, the RLU, TF-1 proliferation with IL-5, Ab 2.66667 nM [3] was 45200 RLU and 42600 RLU and the RLU, TF-1 proliferation with IL-5, Ab 13.33333 nM [3] was 38500 RLU and 40000 RLU. For the same binder, the Fluorescence intensity [4] was 88 MFI, the OD450 nm [5] was 0.081 OD450 nm and 0.087 OD450 nm and the Fluorescence intensity [6] was 91 MFI. The OD450 nm [7] was 1.93 OD450 nm and 2 OD450 nm, the Fluorescence intensity [8] was 67 MFI and the OD450 nm [9] was 0.224 OD450 nm and 0.221 OD450 nm. The OD450 nm [10] was 0.083 OD450 nm and 0.098 OD450 nm, the Fluorescence intensity [11] was 39 MFI and the Fluorescence intensity [12] was 35 MFI. For the same binder, the OD450 nm [13] was 0.716 OD450 nm and 0.77 OD450 nm, the OD450 nm [14] was 3.7 OD450 nm and 3.71 OD450 nm and the Fluorescence intensity [15] was 87 MFI. For the same binder, the Fluorescence intensity [16] was 46 MFI, the Fluorescence intensity [17] was 88 MFI and the OD450 nm [18] was 2.96 OD450 nm and 3.01 OD450 nm.

B2: 154F10G8 (murine hybridoma antibody) (antibody, V domains shown)
VH: QVQLQQPGAELVKPGASVKLSCKASGYTFTSYWITWVKQRPGQGLEWIGDIYPGSGSTFYNEKFKSEATLTVDTSSSTAYMQLSSLTSEDSAVFYCSTETTLGYWGQGTTLTVSS
VL: DVLMTQTPLSLPVSLGDQASISCRSSQSIVHNNGNTYLEWYLQKPGQSPKLLIYKVSNRFSGVPDRFSGSGSGTDFTLKISRVEAEDLGVYYCFQGSHVPFTFGSGTKLEIK
For B2, the OD450 nm [19] was 3.3 and 3.49, the OD450 nm [20] was 0.595 and 0.64 and the OD450 nm [21] was 1.69 and 1.71. For the same binder, the OD450 nm [22] was 0.093 and 0.092, the OD450 nm [23] was 3.23 and 3.17 and the OD450 nm [24] was 2.76 and 2.69. For the same binder, the OD450 nm [25] was 0.079 and 0.07 and the OD450 nm [26] was 0.205 and 0.193.
